{"source": "paper PMC4941815", "origin": "cited, not measured here", "key": {"[1]": {"molecular_target": "CLK1 (Homo sapiens) (UniProt P49759)", "sequence (P49759 whole entry)": "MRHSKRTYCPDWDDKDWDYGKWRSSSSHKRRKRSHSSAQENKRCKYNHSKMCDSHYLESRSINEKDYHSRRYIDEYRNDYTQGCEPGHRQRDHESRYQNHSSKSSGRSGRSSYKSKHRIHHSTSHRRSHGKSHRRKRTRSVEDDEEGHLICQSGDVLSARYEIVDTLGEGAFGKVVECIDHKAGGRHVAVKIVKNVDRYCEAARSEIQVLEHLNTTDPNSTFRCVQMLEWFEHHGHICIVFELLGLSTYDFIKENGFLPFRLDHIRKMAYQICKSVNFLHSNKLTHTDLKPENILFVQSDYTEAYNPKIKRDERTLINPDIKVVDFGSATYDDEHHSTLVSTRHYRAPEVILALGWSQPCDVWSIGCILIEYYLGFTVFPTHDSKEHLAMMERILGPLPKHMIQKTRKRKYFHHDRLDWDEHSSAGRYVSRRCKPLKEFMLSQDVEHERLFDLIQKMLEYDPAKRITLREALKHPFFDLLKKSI", "experiment": "competition"}, "[2]": {"molecular_target": "SRPK1 (Homo sapiens) (UniProt Q96SB4)", "sequence (Q96SB4 whole entry)": "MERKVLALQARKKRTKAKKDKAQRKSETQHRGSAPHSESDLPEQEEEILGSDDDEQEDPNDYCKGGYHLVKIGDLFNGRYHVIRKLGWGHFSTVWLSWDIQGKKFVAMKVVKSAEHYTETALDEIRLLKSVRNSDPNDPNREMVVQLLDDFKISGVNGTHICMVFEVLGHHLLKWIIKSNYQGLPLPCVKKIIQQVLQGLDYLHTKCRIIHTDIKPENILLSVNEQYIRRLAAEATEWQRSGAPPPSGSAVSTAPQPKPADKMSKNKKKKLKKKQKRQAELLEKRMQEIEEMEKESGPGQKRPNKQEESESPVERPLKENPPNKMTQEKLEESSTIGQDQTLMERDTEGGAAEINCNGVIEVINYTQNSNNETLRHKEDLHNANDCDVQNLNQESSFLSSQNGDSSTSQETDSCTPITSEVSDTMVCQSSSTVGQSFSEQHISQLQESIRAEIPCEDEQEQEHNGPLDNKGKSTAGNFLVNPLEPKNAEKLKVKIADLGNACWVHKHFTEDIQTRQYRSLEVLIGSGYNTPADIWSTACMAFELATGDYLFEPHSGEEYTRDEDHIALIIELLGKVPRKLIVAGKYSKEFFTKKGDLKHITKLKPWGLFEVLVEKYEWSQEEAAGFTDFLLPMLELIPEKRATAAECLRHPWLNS", "experiment": "competition"}}, "data": [{"substance": "SRSF1 (from UniProt Q07955)", "values": [{"measurement": "Kd", "setting": "[1]", "value": 6, "unit": "nM"}, {"measurement": "Kd", "setting": "[2]", "value": 60, "unit": "nM"}]}]}
